Reference: paper PMC4384708, “Molecular imaging of angiogenesis after myocardial infarction by ^111In-DTPA-cNGR and ^99mTc-sestamibi dual-isotope myocardial SPECT” (EJNMMI Research, 2015)
Bridge positions count the residues as written; N and C are the ends. Peptide text beside a SMILES is read from it. * marks the point of attachment. X1 = N[C@@H](CSC1CC(=O)N(CC2CCC(C(=O)*)CC2)C1=O)C(=O)NCCCC[C@@H](C(=O)O)N(CCN(CC(=O)O)CC(=O)O)CCN(CC(=O)O)CC(=O)O

Tests used:
[1] = Matrigel plug model, ex vivo SPECT of explanted Matrigels; assay type: in vivo; conditions: male, Swiss, mouse, total radioactivity, six mice, mean ± SEM
Method: (§1) MI was induced in 10- to 12-week old male Swiss mice by ligation of the left anterior descending coronary artery (LAD) (n = 7), as previously described. The angiogenesis imaging protocol was performed 7 days after the LAD ligation. A group of non-operated male Swiss mice (n = 5) was used as control. A variable number of animals were available for analysis per experiment. For SPECT scans, seven MI mice and five control mice were used while for biodistribution purposes ≥5 MI mice and ≥4 control mice were used. Furthermore, a group of six 10- to 12-week old male Swiss mice were bilaterally, subcutaneously implanted in the flanks with Matrigel (Table 1). […] All animals were held under the guidelines of the animal care facility (Maastricht University). All animal experiments were approved by the Committee for Animal Welfare of Maastricht University.
(§2) The PMOD 2.95 cardiac tool PCARD (PMOD Technologies, Zürich, Switzerland) was used to segment the heart in the 17-segment model according to the American Heart Association (AHA) guidelines. For both the ^99mTc-sestamibi and ^111In-DTPA-cNGR images, the uptake was measured for each segment and expressed as mean standardised uptake value (SUVmean) using equation (b).b SUV=SPECTcountspervoxel×CF/VvMBq/ml×Bodyweightg/InjecteddoseMBq

[2] = in vivo; conditions: male, Swiss, mouse, heart, iv, mean ± S.E.M.
Method: as §1
Mice were anesthetised with isoflurane (induction 2.5%; maintenance; 1.5%), a catheter was placed in the tail vein and the animals were positioned in the micro-SPECT camera (MiLabs, Utrecht, The Netherlands).
U-SPECT-II reconstruction software version 2.38 (MiLabs, Utrecht, The Netherlands) was used to reconstruct images. ^99mTc and ^111In images were reconstructed by selecting the photopeak (PP) and background (BG) windows as indicated in Figure 1.
To allow quantification of radiotracer uptake in vivo, conversion factors (CFs) were determined for the 0.6-mm collimator system in a representative phantom (20 ml) for ^99mTc and/or ^111In. During the SPECT reconstruction, the total amount of counts was distributed over the different voxels, resulting in a counts/voxel expression for the average concentration of counts. Taking into account the voxel volume (Vv), the CFs are calculated using equation (a):a ConversionfactorMBq=ActivityconcentrationMBq/ml/SPECTcountspervoxel/Vvml
as §2
For body weight, we assumed that 1 g of body weight equalled 1 ml.

[3] = in vivo; conditions: 2 h p.i., gamma counting, mean ± SEM; for urinary excretion (urine radioactivity): i.v.; for tissue uptake at 2 h: male, Swiss, mouse, iv, total radioactivity
Method: In order to quantify the absolute uptake of ^111In-DTPA-cNGR in the different heart pieces, gamma counting was performed using an automated NaI(Tl) gamma counter (Wallac Wizard, Turku, Finland). Additionally, we dissected the vital organs of the mice to study overall biodistribution. The uptake of ^111In-DTPA-cNGR was determined 2 h post-injection (p.i.) for both MI (n ≥ 5) and control animals (n ≥ 4). Data were expressed as percentage of injected dose per gram tissue (%ID/g). Urinal excretion was expressed as %ID.

## CC(=O)N[C@H]1CSSC[C@@H](C(=O)NCC(=O)NCC(=O)N[C@@H](CCCCNC(=O)C2CCC(CN3C(=O)CC(SC[C@H](N)C(=O)NCCCC[C@@H](C(=O)O)N(CCN(CC(=O)O)CC(=O)O)CCN(CC(=O)O)CC(=O)O)C3=O)CC2)C(N)=O)NC(=O)[C@H](CCCNC(=N)N)NC(=O)CNC(=O)[C@H](CC(N)=O)NC1=O (stereo partly drawn) [^111In-DTPA-cNGR, metal not drawn] (Ac-CNGRCGGK(X1)-NH2; disulfide 1-5)
[1]; explanted control (PBS) Matrigel plug, control (PBS) Matrigels
  SUV: 0.000222 SUV
[1]; explanted hFGF2-supplemented Matrigel plug, hFGF2-supplemented Matrigels
  SUV: 0.000824 SUV
[2]; AHA segment 5 (basal inferolateral), segment 5. Basal inferolateral, MI mice n = 7, 7 days after LAD ligation, in vivo SPECT
  SUV: 0.23 ± 0.03 SUV
[2]; AHA segment 5 (basal inferolateral), segment 5. Basal inferolateral, healthy control mice n = 5, in vivo SPECT
  SUV: 0.14 ± 0.04 SUV
[2]; segment 1 basal anterior, total radioactivity, healthy control mice n = 5, in vivo SPECT
  SUV: 0.16 ± 0.05 SUV
[2]; segment 1 basal anterior, total radioactivity, segment 1. Basal anterior, MI mice n = 7, 7 days after LAD ligation, in vivo SPECT
  SUV: 0.24 ± 0.04 SUV
[2]; segment 2 basal anteroseptal, total radioactivity, healthy control mice n = 5, in vivo SPECT
  SUV: 0.16 ± 0.05 SUV
[2]; segment 2 basal anteroseptal, total radioactivity, segment 2. Basal anteroseptal, MI mice n = 7, 7 days after LAD ligation, in vivo SPECT
  SUV: 0.21 ± 0.03 SUV
[2]; segment 3 basal inferoseptal, total radioactivity, healthy control mice n = 5, in vivo SPECT
  SUV: 0.13 ± 0.06 SUV
[2]; segment 3 basal inferoseptal, total radioactivity, segment 3. Basal inferoseptal, MI mice n = 7, 7 days after LAD ligation, in vivo SPECT
  SUV: 0.2 ± 0.02 SUV
[2]; segment 4 basal inferior, total radioactivity, healthy control mice n = 5, in vivo SPECT
  SUV: 0.15 ± 0.05 SUV
[2]; segment 4 basal inferior, total radioactivity, segment 4. Basal inferior, MI mice n = 7, 7 days after LAD ligation, in vivo SPECT
  SUV: 0.23 ± 0.03 SUV
[2]; segment 6 basal anterolateral, total radioactivity, healthy control mice n = 5, in vivo SPECT
  SUV: 0.18 ± 0.06 SUV
[2]; segment 6 basal anterolateral, total radioactivity, segment 6. Basal anterolateral, MI mice n = 7, 7 days after LAD ligation, in vivo SPECT
  SUV: 0.26 ± 0.04 SUV
[2]; segment 7 mid anterior, total radioactivity, healthy control mice n = 5, in vivo SPECT
  SUV: 0.15 ± 0.05 SUV
[2]; segment 7 mid anterior, total radioactivity, segment 7. Mid anterior, MI mice n = 7, 7 days after LAD ligation, in vivo SPECT
  SUV: 0.21 ± 0.02 SUV
[2]; segment 8 mid anteroseptal, total radioactivity, healthy control mice n = 5, in vivo SPECT
  SUV: 0.14 ± 0.06 SUV
[2]; segment 8 mid anteroseptal, total radioactivity, segment 8. Mid anteroseptal, MI mice n = 7, 7 days after LAD ligation, in vivo SPECT
  SUV: 0.2 ± 0.02 SUV
[2]; segment 9 mid inferoseptal, total radioactivity, healthy control mice n = 5, in vivo SPECT
  SUV: 0.12 ± 0.06 SUV
[2]; segment 9 mid inferoseptal, total radioactivity, segment 9. Mid inferoseptal, MI mice n = 7, 7 days after LAD ligation, in vivo SPECT
  SUV: 0.18 ± 0.03 SUV
[2]; segment 10 mid inferior, total radioactivity, healthy control mice n = 5, in vivo SPECT
  SUV: 0.12 ± 0.05 SUV
[2]; segment 10 mid inferior, total radioactivity, segment 10. Mid inferior, MI mice n = 7, 7 days after LAD ligation, in vivo SPECT
  SUV: 0.17 ± 0.03 SUV
[2]; segment 11 mid inferolateral, total radioactivity, healthy control mice n = 5, in vivo SPECT
  SUV: 0.11 ± 0.04 SUV
[2]; segment 11 mid inferolateral, total radioactivity, segment 11. Mid inferolateral, MI mice n = 7, 7 days after LAD ligation, in vivo SPECT
  SUV: 0.2 ± 0.03 SUV
[2]; segment 12 mid anterolateral, total radioactivity, healthy control mice n = 5, in vivo SPECT
  SUV: 0.15 ± 0.05 SUV
[2]; segment 12 mid anterolateral, total radioactivity, segment 12. Mid anterolateral, MI mice n = 7, 7 days after LAD ligation, in vivo SPECT
  SUV: 0.24 ± 0.01 SUV
[2]; segment 13 apical anterior, total radioactivity, healthy control mice n = 5, in vivo SPECT
  SUV: 0.11 ± 0.03 SUV
[2]; segment 13 apical anterior, total radioactivity, segment 13. Apical anterior, MI mice n = 7, 7 days after LAD ligation, in vivo SPECT
  SUV: 0.21 ± 0.02 SUV
[2]; segment 14 apical septal, total radioactivity, healthy control mice n = 5, in vivo SPECT
  SUV: 0.12 ± 0.04 SUV
[2]; segment 14 apical septal, total radioactivity, segment 14. Apical septal, MI mice n = 7, 7 days after LAD ligation, in vivo SPECT
  SUV: 0.2 ± 0.03 SUV
[2]; segment 15 apical inferior, total radioactivity, healthy control mice n = 5, in vivo SPECT
  SUV: 0.1 ± 0.03 SUV
[2]; segment 15 apical inferior, total radioactivity, segment 15. Apical inferior, MI mice n = 7, 7 days after LAD ligation, in vivo SPECT
  SUV: 0.18 ± 0.03 SUV
[2]; segment 16 apical lateral, total radioactivity, healthy control mice n = 5, in vivo SPECT
  SUV: 0.14 ± 0.04 SUV
[2]; segment 16 apical lateral, total radioactivity, segment 16. Apical lateral, MI mice n = 7, 7 days after LAD ligation, in vivo SPECT
  SUV: 0.22 ± 0.02 SUV
[2]; segment 17 apex, total radioactivity, healthy control mice n = 5, in vivo SPECT
  SUV: 0.1 ± 0.03 SUV
[2]; segment 17 apex, total radioactivity, segment 17. Apex, MI mice n = 7, 7 days after LAD ligation, in vivo SPECT
  SUV: 0.2 ± 0.03 SUV
[3]; MI mice (n ≥ 5)
  urinary excretion (urine radioactivity): 82.29 ± 4.87 %ID
[3]; healthy control mice (n ≥ 4)
  urinary excretion (urine radioactivity): 92.5 ± 1.17 %ID
[3]; heart, apical region, uptake in the apical region of the heart, infarcted hearts, MI mice (n ≥ 5)
  tissue uptake at 2 h: 0.16 ± 0.0542 %ID/g
[3]; heart, apical region, uptake in the apical region of the heart, non-infarcted hearts, healthy control mice (n ≥ 4)
  tissue uptake at 2 h: 0.02 ± 0.005 %ID/g
[3]; kidney, kidney uptake, MI mice (n ≥ 5)
  tissue uptake at 2 h: 2.73 ± 0.42 %ID/g
[3]; kidney, kidney uptake, healthy control mice (n ≥ 4)
  tissue uptake at 2 h: 4.04 ± 0.41 %ID/g
